In US20200317768A1 (published 2020):
Residue numbers refer to the chain shown, from its start.

T1: cynomolgus monkey FcγRIIa2 extracellular domain with C-terminal His-tag (cynomolgus monkey)
T1 construct: Expressed in FreeStyle 293 cells and purified; also called cyno FcγRIIa2; cynoFcgRIIa2; not shown: C-terminal His-tag
T1 chain: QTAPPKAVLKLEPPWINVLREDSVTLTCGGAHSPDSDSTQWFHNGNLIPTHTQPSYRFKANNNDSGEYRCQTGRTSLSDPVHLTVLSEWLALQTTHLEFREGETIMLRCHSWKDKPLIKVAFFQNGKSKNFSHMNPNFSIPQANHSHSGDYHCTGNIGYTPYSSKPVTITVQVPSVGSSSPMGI

T2: cynomolgus monkey FcγRIIa3 extracellular domain with C-terminal His-tag (cynomolgus monkey)
T2 construct: Expressed in FreeStyle 293 cells and purified; also called cyno FcγRIIa3; cynoFcgRIIa3; not shown: C-terminal His-tag
T2 chain: T1 chain with K127I, N130K, H133P, Q142R

T3: human FcγRIIb extracellular domain with C-terminal His-tag (human, UniProt P31994 43-217)
T3 construct: Expressed in FreeStyle 293 cells and purified; also called humanFcgRIIb; not shown: C-terminal His-tag
T3 sequence: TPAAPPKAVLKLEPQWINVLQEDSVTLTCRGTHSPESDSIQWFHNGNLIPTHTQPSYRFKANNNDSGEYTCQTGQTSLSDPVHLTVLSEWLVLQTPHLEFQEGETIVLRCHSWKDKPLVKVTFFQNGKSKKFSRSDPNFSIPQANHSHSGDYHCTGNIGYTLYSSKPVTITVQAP

T4: cynomolgus monkey FcγRIIIaS extracellular domain with C-terminal His-tag (cynomolgus monkey, UniProt Q8SPW2 21-206 at identity 1.00))
T4 construct: Expressed in FreeStyle 293 cells and purified; also called cyno FcγRIIIaS; cynoFcγRIIIaS; not shown: C-terminal His-tag
T4 chain: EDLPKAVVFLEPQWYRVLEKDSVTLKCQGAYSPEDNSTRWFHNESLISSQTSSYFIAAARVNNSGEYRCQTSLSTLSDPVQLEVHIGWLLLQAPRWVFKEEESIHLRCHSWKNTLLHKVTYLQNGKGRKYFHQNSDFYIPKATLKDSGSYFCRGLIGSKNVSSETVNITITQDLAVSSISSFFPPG

T5: cynomolgus monkey FcγRIIa1 extracellular domain with C-terminal His-tag (cynomolgus monkey)
T5 construct: Expressed in FreeStyle 293 cells and purified; also called cyno FcγRIIa1; cynoFcgRIIa1; not shown: C-terminal His-tag
T5 chain: T1 chain with T95P, A121T, K127I, S128A, N130K, N135D, Q142R

T6: human FcγRIIaH extracellular domain with C-terminal His-tag (human, UniProt P12318 34-217)
T6 construct: Expressed in FreeStyle 293 cells and purified; also called human FcγRIIa (type H); FcgRIIaH; not shown: C-terminal His-tag
T6 sequence: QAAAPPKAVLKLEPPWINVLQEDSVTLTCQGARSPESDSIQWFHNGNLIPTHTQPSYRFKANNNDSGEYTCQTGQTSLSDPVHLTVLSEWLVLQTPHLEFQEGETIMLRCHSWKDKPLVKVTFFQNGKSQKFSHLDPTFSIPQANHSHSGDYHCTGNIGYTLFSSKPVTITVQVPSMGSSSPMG

T7: cynomolgus monkey FcγRIIb extracellular domain with C-terminal His-tag (cynomolgus monkey)
T7 construct: Expressed in FreeStyle 293 cells and purified; also called cyno FcγRIIb; cynoFcγRIIb; not shown: C-terminal His-tag
T7 chain: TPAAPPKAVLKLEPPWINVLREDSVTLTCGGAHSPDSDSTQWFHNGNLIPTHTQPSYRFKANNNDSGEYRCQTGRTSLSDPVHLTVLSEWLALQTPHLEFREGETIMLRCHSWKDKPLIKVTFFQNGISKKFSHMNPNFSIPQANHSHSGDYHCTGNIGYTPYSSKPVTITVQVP

B1: M103205H795-MY176 / M103202L889-SK1 (antibody, human IgG1, kappa)
heavy: QVTLKESGPVLVKPTETLTLTCTVSGIDLSHDDISWVRQAPGKGLEWVGIISYAGSTYYASWAKGRLTISKDTSKNQVVLTMTNMDPVDTATYYCARGVPAYSHGGDLWGQGTLVTVSSASTKGPSVFPLAPSSKSTSGGTAALGCLVKDYFPEPVTVSWNSGALTSGVHTFPAVLQSSGLYSLSSVVTVPSSSLGTQTYICNVNHKPSNTKVDKKVEPKSCDKTHTCPPCPAPELLNGPSVFLFPPKPKDTLMISRTPEVTCVVVDVSEEDPEVKFNWYVDGVEVHNAKTKPREEQYNSTYRVVSVLTVLHQDWLNGKEYKCKVSNKALPAPIEKTISKAKGQPREPQVYTLPPSREEMTKNQVSLTCLVKGFYPSDIAVEWESNGQPENNYKTTPLVLDSDGSFFLYSKLTVDKSRWQQGNVFSCSVMHEALHNHYTQKSLSLSP
light: DIVMTQSPATLSLSPGERATLSCTSSQSVYHANWLSWFQQKPGQPPKLLIYWASTLAYGVPSRFSGSGSGTDFTLTISSLQPEDAATYYCAGGYGGGRYAFGQGTKVEIKRTVAAPSVFIFPPSDEQLKSGTASVVCLLNNFYPREAKVQWKVDNALQSGNSQESVTEQDSKDSTYSLSSTLTLSKADYEKHKVYACEVTHQGLSSPVTKSFNRGEC
notes: Position 396 variant derived from MY052, expressed with M103202L889-SK1 as light chain
B2: M103205H795-MY181 / M103202L889-SK1 (antibody, human IgG1, kappa)
heavy: B1 heavy with L398T
light: B1 light
notes: as for B1
B3: M103205H795-MY179 / M103202L889-SK1 (antibody, human IgG1, kappa)
heavy: B1 heavy with L398R
light: B1 light
notes: as for B1
B4: M103205H795-MY184 / M103202L889-SK1 (antibody, human IgG1, kappa)
heavy: B1 heavy with L398Y
light: B1 light
notes: as for B1
B5: M103205H795-MY183 / M103202L889-SK1 (antibody, human IgG1, kappa)
heavy: B1 heavy with L398W
light: B1 light
notes: as for B1
B6: M103205H795-MY178 / M103202L889-SK1 (antibody, human IgG1, kappa)
heavy: B1 heavy with L398Q
light: B1 light
notes: as for B1
B7: M103205H795-MY180 / M103202L889-SK1 (antibody, human IgG1, kappa)
heavy: B1 heavy with L398S
light: B1 light
notes: as for B1
B8: M103205H795-MY177 / M103202L889-SK1 (antibody, human IgG1, kappa)
heavy: B1 heavy with L398N
light: B1 light
notes: as for B1
B9: M103205H795-MY182 / M103202L889-SK1 (antibody, human IgG1, kappa)
heavy: B1 heavy with L398V
light: B1 light
notes: as for B1

Legend:
Assay in all cases: SPR (Biacore); KD of SG1 divided by KD of the variant for this FcgR;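 note: relative to parent M103205H795-SG1 carrying the SG1 human heavy chain constant region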
[1] = target: T8, human FcγRIIIaV extracellular domain with C-terminal His-tag (human, UniProt P08637 17-208)
T8 construct: Expressed in FreeStyle 293 cells and purified; also called FcgRIIIaV; not shown: C-terminal His-tag
T8 sequence (P08637 17-208 F176V): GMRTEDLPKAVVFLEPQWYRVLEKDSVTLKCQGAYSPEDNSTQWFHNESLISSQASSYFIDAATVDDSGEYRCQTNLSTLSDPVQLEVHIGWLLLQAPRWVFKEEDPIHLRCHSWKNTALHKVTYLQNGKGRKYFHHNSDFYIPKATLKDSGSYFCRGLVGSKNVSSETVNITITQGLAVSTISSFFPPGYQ

[2] = target: T1, cynomolgus monkey FcγRIIa2 …
[3] = target: T2, cynomolgus monkey FcγRIIa3 …
[4] = target: T3, human FcγRIIb extracellular domain with …
[5] = target: T4, cynomolgus monkey FcγRIIIaS …
[6] = target: T5, cynomolgus monkey FcγRIIa1 …
[7] = target: T6, human FcγRIIaH extracellular domain …
[8] = target: T7, cynomolgus monkey FcγRIIb extracellular …

| Binder | KD fold (SG1 = 1) [1] [fold] | KD fold (SG1 = 1) [2] [fold] | KD fold (SG1 = 1) [3] [fold] | KD fold (SG1 = 1) [4] [fold] | KD fold (SG1 = 1) [5] [fold] | KD fold (SG1 = 1) [6] [fold] | KD fold (SG1 = 1) [7] [fold] | KD fold (SG1 = 1) [8] [fold] |
| --- | --- | --- | --- | --- | --- | --- | --- | --- |
| B1 | 0.13 | 3.6 | 2.8 | 6.6 | 0.16 | 2.5 | 1 | 3 |
| B2 | 0.11 | 2.2 | 1.8 | 3.3 | 0.09 | 1.4 | 0.5 | 1.8 |
| B3 | 0.14 | 2.5 | 2.2 | 3.8 | 0.13 | 1.7 | 0.6 | 1.8 |
| B4 | 0.12 | 2.6 | 2 | 4.2 | 0.11 | 1.7 | 0.6 | 2 |
| B5 | 0.11 | 2.5 | 2 | 4.2 | 0.1 | 1.5 | 0.6 | 1.9 |
| B6 | 0.18 | 2.4 | 2 | 3.5 | 0.12 | 1.6 | 0.5 | 1.9 |
| B7 | 0.14 | 1.9 | 1.4 | 2.4 | 0.12 | 1.2 | 0.4 | 1.4 |
| B8 | 0.13 | 2.8 | 2.1 | 4.2 | 0.12 | 1.7 | 0.7 | 2.2 |
| B9 | 0.12 | 2.3 | 2.2 | 3.8 | 0.1 | 1.5 | 0.5 | 1.9 |
